In article PMC11488661 (Science immunology, 2024):
Numbering of substitutions follows the chain as printed.

B1: g5-D78-2_CLK19 (antibody, V domains shown)
VH: QVQLVQSGAEVKKPGASVKVSCKTSGYTFTGYFLHWVRQAPGQGLEWMGWINPNSGGINYAQKFQGRVTMTRDTSINTAYMELSRLRSDDTAVYYCTPVLTNFRWPFAFWGQGTLVTVSS
VL: DIQMTQSPSSLSASVGDRVTITCQASQDIKNYLNWYQQKPGTAPKLLIYDTSNLETGVPSRFSGRGSGTDFTFTISSLQPEDIATYYCQQYETFGPGTKVDIK
B2: g5-D78-20_CLK19 (antibody, V domains shown)
VH: QVQLVQSGAEVKKPGASVKVSCKASGYIFTDYNMHWVRQAPGQGLEWMAWINPRSGGRNIVQKFQGRVTMTRDTSISTAFMELSGLRSDDTAVYFCTPVLAPFRWRFAYWGQGTLVTVSS
VL: DIQMTQSPSSLSASVGDRVTITCQASQDINYLNWYQQKPGKAPKLLIYDASNLETGVPSRFSGSGSGTDFTFTISSLQPENIATYYCQQYAAFGPGTKVDIK
B3: g5-D78-21_CLK19 (antibody, V domains shown)
VH: B1 VH
VL: B1 VL with R65S
B4: g5-D78-22_CLK19 (antibody, V domains shown)
VH: QVQLVQSGAEVKKPGASVKVSCKASGYTFTGYYIHWVRQAPGHGLEWLGWINPNYGAVNYARKFQGRVTLTRDTSISTAFMELQSLRSDDTAIYHCTISLAGYRWGFDYWGQGALVTVSS
VL: DIQMTQSPSSLSAFVGDRVTITCQARLDIRYSLNWYQQKPGKAPNLLIYDVSNLEIGVPSRFSGSGSGTNFTFTISTLQPEDIATYYCQQYETFGPGTKVDIK
B5: g5-D78-23_CLK09 (antibody, V domains shown)
VH: QVQLVQSGAEVKKPGASVKVSCKASGYTFTDYYMHWVRQAPGQGLEWVGWINPNSGGMNFAQRFQDRVTMTRDTSISTAYMELSRLQSDDSAVYFCARVGGLWIGEKWTFDIWGQGTMVTVSS
VL: DIQMTQSPSSLSASVGDRVTITCQASQDISTYLNWYQQRPGKAPKLLIYGASNLATGVPSRFSGSGSGTDFTFTISSLQPEDIATYYCQLYEFFGGGTKVEIK
B6: g5-D78-3_CLK19 (antibody, V domains shown)
VH: B2 VH with A49G, R54S, S55F, F80Y, R106P
VL: B2 VL with N81D, I101N
B7: g5-D78-4_CLK19 (antibody, V domains shown)
VH: B2 VH with A49G, S55F, I76S, F80Y, R106P
VL: B2 VL with N81D
B8: g5-D78-5_CLK19 (antibody, V domains shown)
VH: B1 VH with T24A, G31D, S55R, I58V, V99I, P106R, A108D
VL: B1 VL with K30Q, R65S, T72I, T93A
B9: g5-D78-6_CLK19 (antibody, V domains shown)
VH: B1 VH with N77H
VL: B1 VL with R65G
B10: g5-D78-7_CLK19 (antibody, V domains shown)
VH: B4 VH with H43Q, L48M, N54S, L70M, F80Y, S85R, S99A
VL: B4 VL with R30S, V51A, I56T, T74A, T77A, D101H
B11: g5-D78-8_CLK09 (antibody, V domains shown)
VH: QVQLVQSGAEVKKPGVSVKVSCKASGYTFNGYYMHWVRQAPGQGLEWMGWINPNNGGINIARRFEDRVTMTRDTSITTAHMELSRLRSDDSAVYYCARVGGLWFGEKWTFDIWGQGTMVTVSS
VL: B5 VL with A25T, Y32F, S52C, L90Q
B12: g5-D78-9_CLK19 (antibody, V domains shown)
VH: B2 VH with A49G, S55F, F80Y, R106P
VL: B2 VL with N81D
B13: GT8-D36-10_CLK19 (antibody, V domains shown)
VH: QVQLVQSGAEVKKPGASVKVSCKASGYSFTGYYIHWVRQAPGQGLEWMGWTNPNSGGTNYAQKLEGRVTMTRDTSISTAYMELSRLRFDDTAVYYCALAGYRWRFDYWGQGTLVTVSS
VL: not shown
B14: GT8-D36-13_CLK09 (antibody, V domains shown)
VH: QVQLVQSGAEVKKPGASVKVSCKASGYTFTGYYIHWVRQAPGQGLKWMGWINPNSGGTNYAQKFQGRVTMTRDTSISTAYLELSRLRSDDTAVYYCARVEGLWTFDIWGQGTMVTVSS
VL: B5 VL with T31N, R39K, L46V, G50D, A55E, P80S, I83V, L90Q, K99T
B15: GT8-D36-14_CLK09 (antibody, V domains shown)
VH: not shown
VL: B5 VL with T31N, R39K, G50D, A55E, L90Q
B16: GT8-D36-15_CLK09 (antibody, V domains shown)
VH: B14 VH with Y32H, Y60N
VL: B5 VL with T31N, R39T, G50D, A55E, P80S, L90Q, Y91F
B17: GT8-D36-16_CLK09 (antibody, V domains shown)
VH: B14 VH
VL: B5 VL with T31N, R39K, L46V, G50D, A55E, P80S, L90Q
B18: GT8-D36-17_CLK09 (antibody, V domains shown)
VH: B14 VH with T30S
VL: B5 VL with V15I, T31N, R39K, G50D, A55E, P80S, L90Q
B19: GT8-D36-18_CLK21 (antibody, V domains shown)
VH: QVQLVQSGAEVKKPGASVKVSCKTSGYTFTDYYMHWVRQAPGQGLEWMGWINPNSGGTNYAQRFQGRVTMTRDTSISTAYMELSRLRSDDTAVYYCASALRDSQPWWFDPWGQGTLVTVSS
VL: DIQMTQSPSTLSASVGDRVTITCRASQSISSWLAWYQQKPGKAPKLLIYKASSLESGVPSRFSGSGSGTEFTLTISSLQPDDFATYYCQQYDTFGGGTKVEIK
B20: GT8-D36-19_CLK09 (antibody, V domains shown)
VH: B14 VH with K12R, K46E, A61E
VL: B5 VL with T31N, R39K, G50D, A55E, P80S, L90Q
B21: GT8-D36-2_CLK09 (antibody, V domains shown)
VH: QVQLVQSGAEVKKPGASVKVSCKASGYTFTGYYMNWVRQAPGQGLEWMGWINPNSGGTNYAQQFQGRVTMTRDTSISTAYMELSRLKSDDTAVYYCARVDGKKKTFDIWGQGTMVTVSS
VL: B5 VL with T31N, R39K, G50D, A51V, A55E, D70A, L90Q
B22: GT8-D36-20_CLK09 (antibody, V domains shown)
VH: B14 VH
VL: B5 VL with T31N, R39K, G50D, A55E, T72I, P80S, I83M, L90Q
B23: GT8-D36-21_CLK09 (antibody, V domains shown)
VH: B14 VH
VL: B5 VL with T31N, R39K, G50D, A55E, S76G, P80S, L90Q
B24: GT8-D36-22_CLK21 (antibody, V domains shown)
VH: not shown
VL: B19 VL with K99R
B25: GT8-D36-3_CLK09 (antibody, V domains shown)
VH: QVQLVQSGAEVKKPGASVKVSCKASGYTFTGYYMHWVRQAPGQGLEWMGWINPNSGGTNFAQKFQGRVTMTRDTSINTAYMELSRLRSDDSAVFYCARVESKIFDIWGQGTMVTVSS
VL: B5 VL with A25T, T31N, R39K, G50D, A55E, L90Q
B26: GT8-D36-4_CLK09 (antibody, V domains shown)
VH: not shown
VL: B5 VL with M4L, T31S, Y32S, R39K, P40T, L46V, G50D, A55E, L90Q
B27: GT8-D36-5_CLK09 (antibody, V domains shown)
VH: not shown
VL: B5 VL with A25T, T31N, R39K, G50D, A55E, L90Q
B28: GT8-D36-6_CLK19 (antibody, V domains shown)
VH: QVQLVQSGAEVKKPGASVKVSCKASEYTFTGYYMHWVRQAPGQGLEWMGWINPNSGGTNYVQKFQDRVTMTRDTSINTAYMELSRLRSDDTAVYYCTPVLAYYRWRFDYWGQGTLVTVSS
VL: not shown
B29: GT8-D36-8_CLK19 (antibody, V domains shown)
VH: QVQLVQSGAEVKMPGASVKVSCKASGYTFTGYYMHWVRQAPGQGLEWMGWINPNSGGTNYAQKFQGRVTMTRDTSISTAYMALNSLRSDDAAVYYCAIVLADYRWRFNYWGQGTLVTVSS
VL: not shown

The binders below were run against eOD-GT8 (monomeric ligand) (Human immunodeficiency virus 1, …).

In order of falling Kd:
1. B14  534 nM
2. B16  260 nM
3. B4  100 nM
4. B17  37.9 nM
5. B15  26.9 nM
6. B10  23 nM
7. B22  8.37 nM
8. B23  6.07 nM
9. B13  4.3 nM
10. B18  4.09 nM
11. B2  3.4 nM
12. B24  2.94 nM
13. B19  2.63 nM
14. B7  2.1 nM
15. B12  2.1 nM
16. B28  2.03 nM
17. B8  2 nM
18. B27  1.28 nM
19. B21  0.997 nM
20. B20  0.958 nM
21. B6  0.87 nM
22. B1  0.42 nM
23. B29  0.411 nM
24. B3  0.29 nM
25. B9  0.26 nM
26. B11  0.14 nM
27. B25  0.13 nM
28. B5  0.078 nM
29. B26  0.0423 nM
